This note sets out measurements from US20100129344.

The target in series [1] is T1, IGFBP-2 (human, GroPep), P18065.
T1 chain: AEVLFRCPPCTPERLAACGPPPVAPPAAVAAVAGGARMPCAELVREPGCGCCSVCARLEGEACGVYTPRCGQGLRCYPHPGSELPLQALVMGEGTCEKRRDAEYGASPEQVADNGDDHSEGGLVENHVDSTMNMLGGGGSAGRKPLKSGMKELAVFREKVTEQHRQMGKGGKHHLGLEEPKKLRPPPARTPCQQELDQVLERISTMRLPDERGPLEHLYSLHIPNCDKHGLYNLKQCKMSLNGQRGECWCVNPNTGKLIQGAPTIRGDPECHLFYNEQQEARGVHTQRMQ

Series [2] concerns the target Glycosylated IGFBP-3 (human, GroPep), P17936.
The target in series [3] is T2, Highly phosphorylated HepG2-purified IGFBP-1, P08833.
T2 chain: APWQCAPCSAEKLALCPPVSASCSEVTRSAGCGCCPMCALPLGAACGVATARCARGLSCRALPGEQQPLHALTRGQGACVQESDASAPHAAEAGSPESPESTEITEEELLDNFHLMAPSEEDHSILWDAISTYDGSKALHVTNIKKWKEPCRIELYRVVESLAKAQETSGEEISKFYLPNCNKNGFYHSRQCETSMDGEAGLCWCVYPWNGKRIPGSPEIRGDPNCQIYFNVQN

The target of series [4] is T3, Recombinant phosphorylated IGFBP-1 (human), intact, P08833.
T3 chain: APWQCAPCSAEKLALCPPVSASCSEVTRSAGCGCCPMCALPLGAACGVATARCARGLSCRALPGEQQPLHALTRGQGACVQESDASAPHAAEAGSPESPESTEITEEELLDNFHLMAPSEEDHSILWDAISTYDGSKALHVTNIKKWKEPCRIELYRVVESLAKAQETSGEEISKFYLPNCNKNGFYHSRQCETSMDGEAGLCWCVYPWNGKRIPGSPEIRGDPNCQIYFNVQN

Series [5] concerns the target IGFBP-5 (human, Upstate), P24593.
Series [6] concerns the target T4, IGFBP-4 (human, GroPep), P22692.
T4 chain: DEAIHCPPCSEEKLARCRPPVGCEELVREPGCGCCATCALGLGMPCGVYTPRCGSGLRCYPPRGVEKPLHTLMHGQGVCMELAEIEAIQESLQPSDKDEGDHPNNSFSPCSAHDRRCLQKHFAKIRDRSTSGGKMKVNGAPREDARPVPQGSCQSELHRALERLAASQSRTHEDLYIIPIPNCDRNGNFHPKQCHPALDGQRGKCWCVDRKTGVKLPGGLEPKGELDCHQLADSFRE

The target in series [7] is T5, Dephosphorylated preparation of HepG2-purified IGFBP-1, P08833.
T5 chain: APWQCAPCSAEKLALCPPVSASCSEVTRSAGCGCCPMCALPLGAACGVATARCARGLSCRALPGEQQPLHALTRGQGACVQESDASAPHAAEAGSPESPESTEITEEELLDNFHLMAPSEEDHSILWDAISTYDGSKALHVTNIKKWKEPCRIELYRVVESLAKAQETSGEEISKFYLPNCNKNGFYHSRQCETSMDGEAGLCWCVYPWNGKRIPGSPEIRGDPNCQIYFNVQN

Series [8] addresses T6, IGFBP-6 (human, GroPep), P24592.
T6 chain: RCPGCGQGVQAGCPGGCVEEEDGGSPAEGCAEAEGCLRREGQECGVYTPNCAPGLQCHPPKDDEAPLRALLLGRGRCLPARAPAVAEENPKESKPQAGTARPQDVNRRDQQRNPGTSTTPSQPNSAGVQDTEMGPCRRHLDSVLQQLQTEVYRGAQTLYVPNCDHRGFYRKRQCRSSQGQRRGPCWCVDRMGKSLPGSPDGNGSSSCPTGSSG

The target of series [9] is T7, Recombinant non-phosphorylated IGFBP-1 (human), P08833.
T7 chain: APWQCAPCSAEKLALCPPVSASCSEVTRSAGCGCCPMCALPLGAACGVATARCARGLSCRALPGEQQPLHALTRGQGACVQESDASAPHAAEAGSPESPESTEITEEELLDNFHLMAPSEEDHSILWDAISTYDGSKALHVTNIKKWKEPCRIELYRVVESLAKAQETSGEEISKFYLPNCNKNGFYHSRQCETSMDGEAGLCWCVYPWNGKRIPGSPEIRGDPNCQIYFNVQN

Glycosylated IGFBP-3 (human, GroPep), P17936, sequence (P17936 28-291): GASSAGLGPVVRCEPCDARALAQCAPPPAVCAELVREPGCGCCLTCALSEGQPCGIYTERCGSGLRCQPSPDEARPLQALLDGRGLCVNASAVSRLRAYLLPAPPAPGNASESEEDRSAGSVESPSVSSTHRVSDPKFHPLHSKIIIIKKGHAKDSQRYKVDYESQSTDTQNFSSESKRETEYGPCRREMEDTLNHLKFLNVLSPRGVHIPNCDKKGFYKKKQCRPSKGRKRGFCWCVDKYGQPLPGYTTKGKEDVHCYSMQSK
IGFBP-5 (human, Upstate), P24593, sequence (P24593 21-272): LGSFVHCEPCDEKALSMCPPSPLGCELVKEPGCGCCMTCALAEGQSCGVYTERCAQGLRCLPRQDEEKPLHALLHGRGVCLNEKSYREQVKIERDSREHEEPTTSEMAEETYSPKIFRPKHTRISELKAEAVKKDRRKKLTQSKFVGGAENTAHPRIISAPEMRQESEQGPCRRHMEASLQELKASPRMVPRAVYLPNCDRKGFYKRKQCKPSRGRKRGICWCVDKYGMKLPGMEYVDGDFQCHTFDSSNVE

B1: Azurocidin, native, partially purified from human urine by heparin affinity chromatography (protein)
chain: IVGGRKARPRQFPFLASIQNQGRHFCGGALIHARFVMTAASCFQSQNPGVSTVVLGAYDLRRRERQSRQTFSISSMSENGYDPQQNLNDLMLLQLDREANLTSSVTILPLPLQNATVEAGTRCQVAGWGSQRSGGRLSRFPRFVNVTVTPEDQCRPNNVCTGVLTRRGGICNGDGGTPLVCEGLAHGVASFSLGPCGRGPDFFTRVALFRDWIDGVLNNPGP
Regarding B1, in [1], the “cleavage of IGFBP by urine, 2 h at 37 C, neutral conditions” value (from here on “cleavage of IGFBP by urine, 2 h at 37 C”) was 2 µl had minimal effect on IGFBP-2. In series [2], the “cleavage of IGFBP by urine, 2 h at 37 C” value is on record as 2 µl had minimal effect on ... glycosylated (g) IGFBP-3. Besides, the “cleavage of IGFBP-1 by urine, 2 h at 37 C, neutral conditions (affinity labelling with radioiodinated IGF-I, SDS-PAGE, autoradiography)” value in series [3] is “One µl of urine cleaved more than 50% of each IGFBP-1 isoform”. Moreover, in [4], the “proteolysis of IGFBP-1 (SDS-PAGE, silver staining)” value is “Azurocidin-dependent proteolysis of phosphorylated IGFBP-1 was seen within minutes, using a protease:substrate molar ratio of 1:3,500”; the “time course of degradation by 0.5 µl urine at 37 C (radioiodinated substrate, SDS-PAGE, autoradiography)” value is “no difference was found in the rate of degradation of each isoform, with fragments visible within 3 min, and substantial degradation by 2 h”. Further, in [5], the “cleavage of IGFBP by urine, 2 h at 37 C” value was 2 µl had minimal effect on ... IGFBP-5. In series [6], the “cleavage of IGFBP by urine, 2 h at 37 C” value is 2 µl had minimal effect on ... not shown here, IGFBP-4. For the same protein, the “cleavage of IGFBP-1 by urine, 2 h at 37 C, neutral conditions (affinity labelling with radioiodinated IGF-I, SDS-PAGE, autoradiography)” value in series [7] is “One µl of urine cleaved more than 50% of each IGFBP-1 isoform”. The “cleavage of IGFBP by urine, 2 h at 37 C” value in series [8] was 2 µl had minimal effect on ... not shown here, IGFBP-4 and IGFBP-6. Further, in series [9], the “cleavage of radioiodinated recombinant npIGFBP-1 by 0.25 µl heparin eluate at pH 2 and 7 (2 h, 37 C; SDS-PAGE, autoradiography)” value was “eluate at pH 2: strong 30K band, no fragments; eluate at pH 7: faint 30K band and a strong band at 14.3K”; the “cleavage of radioiodinated recombinant npIGFBP-1 by 0.25 µl heparin eluate at pH 2 to 8 (2 h, 37 C; SDS-PAGE, autoradiography)” value is “the 30K band is strong at pH 2 and 4, a little weaker at pH 5, thin at pH 6 and absent at pH 7, 7.5 and 8; bands at 14.3K appear at pH 5 and 6 and are strongest at pH 7 and 7.5”; the “cleavage of radioiodinated recombinant npIGFBP-1 by 0.5 µl urine after preincubation with 2, 5 or 10 ng IGF-I” value was “at 2, 5 and 10 ng IGF-I the upper band is kept, weaker than in the untreated lane (*), and the lower band is only faint; no clear change from 2 to 10 ng”; the “cleavage of radioiodinated recombinant npIGFBP-1 by 0.5 µl urine after preincubation with 2, 5 or 10 ng IGF-II” value was “at 2, 5 and 10 ng IGF-II the upper band is kept, weaker than in the untreated lane (*), and the lower band is only faint; no clear change from 2 to 10 ng”. In [9], the “cleavage of radioiodinated recombinant npIGFBP-1 by 0.5 µl urine after preincubation with 2, 5 or 10 ng insulin” value was “at all three amounts of insulin the upper band is as faint as with urine alone and the lower band is seen”; the “cleavage of radioiodinated recombinant npIGFBP-1 by 0.5 µl urine alone at pH 7 (2 h, 37 C; SDS-PAGE, autoradiography)” value is “lane U: the upper band of the untreated lane (*) is nearly gone and a strong lower band appears”; the “cleavage of radioiodinated recombinant npIGFBP-1 by 0.5 µl urine at pH 2 to 8 (2 h, 37 C; SDS-PAGE, autoradiography); the neutral range is meant” value is “the 30K band is strong at pH 6, weaker at pH 5, faint at pH 7 and absent at pH 7.5 and 8; strong fragment bands at 14.3K at pH 7, 7.5 and 8 (at pH 2 and 4 the 30K band is also absent, with only faint signal near 14.3K)”; the “time course of degradation by 0.5 µl urine at 37 C (radioiodinated substrate, SDS-PAGE, autoradiography)” value was “no difference was found in the rate of degradation of each isoform, with fragments visible within 3 min, and substantial degradation by 2 h”.

B2: Recombinant azurocidin 27-250, purified from murine myeloma cells (R&D Systems) (protein)
chain: IVGGRKARPRQFPFLASIQNQGRHFCGGALIHARFVMTAASCFQSQNPGVSTVVLGAYDLRRRERQSRQTFSISSMSENGYDPQQNLNDLMLLQLDREANLTSSVTILPLPLQNATVEAGTRCQVAGWGSQRSGGRLSRFPRFVNVTVTPEDQCRPNNVCTGVLTRRGGICNGDGGTPLVCEGLAHGVASFSLGPCGRGPDFFTRVALFRDWIDGVLNNPGPGP
For the protein B2, the “proteolysis of IGFBP-1” value in series [4] was “Recombinant human azurocidin^27-250, produced in mouse myeloma cells, had no effect on IGFBP-1 (data not shown)”.
